Paper PMC10979003 (Nature Communications, 2024)
No end group written: not given here. *: point of attachment. Biotin = O=C1N[C@H]2[C@H](CS[C@H]2CCCCC(=O)*)N1

Target: T1, 6xHis tagged BCL-xL (UniProt Q07817-1 2-212)
T1 construct: BCL-xL; The cloning section gives BCL-xL only an N-terminal ULP1-cleavable SMT3 tag; also called self-made 6×His tagged BCL-xL; WT BCL-xL; source: self-made; E. coli BL21 (DE3) codon plus
Experiment: AlphaScreen or HTRF; AlphaScreen displacement binding assay: Biotin-Bim or Biotin-Bad (15 nM for WT, 50 nM for mutants), 6xHis BCL-2 (25 nM WT, 50 nM mutants) or BCL-xL (10 nM WT, 50 nM mutants), compounds (753b, WH244) as displacers; anti-6xHis acceptor and streptavidin donor beads; 25 mM HEPES pH 7.5, 150 mM NaCl, 0.1% BSA, 0.005% tween 20; room temperature
Conditions: both partners purified

T1 sequence (Q07817 2-212): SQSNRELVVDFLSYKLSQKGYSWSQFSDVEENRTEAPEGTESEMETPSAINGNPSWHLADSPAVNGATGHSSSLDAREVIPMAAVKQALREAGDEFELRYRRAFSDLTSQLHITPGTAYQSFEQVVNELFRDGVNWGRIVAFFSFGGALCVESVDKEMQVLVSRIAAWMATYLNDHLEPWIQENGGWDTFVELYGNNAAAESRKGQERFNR

B1: Biotin-tagged Bad (peptide)
peptide: Biotin-LWAAQRYGRELRRMSDEFEGSFKGL
notes: Bad peptide (BH3 stretch); also called Biotin-[residues removed]
binding result: binds
